These results are taken from paper doi:10.1101/2025.03.29.646087.

The assay addresses SARS-CoV-2 nsp15 with H234A mutation and a N-terminal Strep-Tag II (SARS-CoV-2). Kind of assay: cryo-EM structure.

One may read the stoichiometry N as a count of units in the complex or per binding partner. As for “SARS-CoV-2 nsp15 with H234A mutation and a N-terminal Strep-Tag II (enzyme)”, the stoichiometry N stood at 6.
